Article PMC6820745, “Structural and thermodynamic basis for the recognition of the substrate-binding cleft on hen egg lysozyme by a single-domain antibody” (Scientific Reports, 2019)
Where a chain is given by its changes, count along the chain named. One block for each binder: values may come before it.

Legend:
[1] = molecular target: hen egg lysozyme (hen) (UniProt P00698); test: ITC; iTC200; 25 °C; PBS; VHH (10 uM) in the cell titrated with HEL (100 uM); 1:1 binding model
[2] = molecular target: hen egg lysozyme (hen) (UniProt P00698); test: SPR; as a1, but KD from the responses in equilibrium (Scatchard plot, 1:1 model); HEL immobilised; 25 °C; PBS with 0.005% Tween 20
[3] = molecular target: T1, hen egg lysozyme (hen, UniProt P00698 19-147); test: ITC; iTC200, 25 °C, PBS; VHH (10 µM) in the cell titrated with HEL (100 µM); 1:1 binding model; two independent measurements; details: both partners purified
T1 construct: hen egg lysozyme (HEL), bought, used without further purification; also called HEL; source: bought: Wako Pure Chemical (Cat. No. 126-02671)
T1 sequence (P00698 19-147): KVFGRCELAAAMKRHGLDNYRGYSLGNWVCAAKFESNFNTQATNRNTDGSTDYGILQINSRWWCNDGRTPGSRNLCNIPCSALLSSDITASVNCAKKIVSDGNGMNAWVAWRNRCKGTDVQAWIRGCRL

[4] = molecular target: hen egg lysozyme (hen) (UniProt P00698); test: SPR; Biacore T200; HEL immobilised on CM5 chip (200 RU); VHH flowed over; 25 °C; PBS with 0.005% Tween 20; global fit to a 1:1 binding model
[5] = molecular target: T1, hen egg lysozyme; test: SPR; HEL immobilised on CM5 chip (200 RU), VHH flowed over, multi-cycle, 10 °C, PBS with 0.005% Tween 20, global fit to a 1:1 binding model; details: both partners purified
[6] = molecular target: T1, hen egg lysozyme; test: SPR; HEL immobilised on CM5 chip (200 RU), VHH flowed over, multi-cycle, 14 °C, PBS with 0.005% Tween 20, global fit to a 1:1 binding model; details: both partners purified
[7] = molecular target: T1, hen egg lysozyme; test: SPR; HEL immobilised on CM5 chip (200 RU), VHH flowed over, multi-cycle, 18 °C, PBS with 0.005% Tween 20, global fit to a 1:1 binding model; details: both partners purified
[8] = molecular target: T1, hen egg lysozyme; test: SPR; HEL immobilised on CM5 chip (200 RU), VHH flowed over, multi-cycle, 22 °C, PBS with 0.005% Tween 20, global fit to a 1:1 binding model; details: both partners purified
[9] = molecular target: T1, hen egg lysozyme; test: SPR; HEL immobilised on CM5 chip (200 RU), VHH flowed over, multi-cycle, 26 °C, PBS with 0.005% Tween 20, global fit to a 1:1 binding model; details: both partners purified
[10] = molecular target: T1, hen egg lysozyme; test: SPR; HEL immobilised on CM5 chip (200 RU), VHH flowed over, 10 °C, PBS with 0.005% Tween 20, steady-state responses (Scatchard plot), 1:1 binding model; details: both partners purified
[11] = molecular target: T1, hen egg lysozyme; test: SPR; HEL immobilised on CM5 chip (200 RU), VHH flowed over, 14 °C, PBS with 0.005% Tween 20, steady-state responses (Scatchard plot), 1:1 binding model; details: both partners purified
[12] = molecular target: T1, hen egg lysozyme; test: SPR; HEL immobilised on CM5 chip (200 RU), VHH flowed over, 18 °C, PBS with 0.005% Tween 20, steady-state responses (Scatchard plot), 1:1 binding model; details: both partners purified
[13] = molecular target: T1, hen egg lysozyme; test: SPR; HEL immobilised on CM5 chip (200 RU), VHH flowed over, 22 °C, PBS with 0.005% Tween 20, steady-state responses (Scatchard plot), 1:1 binding model; details: both partners purified
[14] = molecular target: T1, hen egg lysozyme; test: SPR; HEL immobilised on CM5 chip (200 RU), VHH flowed over, 26 °C, PBS with 0.005% Tween 20, steady-state responses (Scatchard plot), 1:1 binding model; details: both partners purified
[15] = molecular target: T1, hen egg lysozyme; test: SPR; HEL immobilised on CM5 chip (200 RU), VHH flowed over, 30 °C, PBS with 0.005% Tween 20, steady-state responses (Scatchard plot), 1:1 binding model; details: both partners purified
[16] = molecular target: hen egg lysozyme (hen) (UniProt P00698); test: SPR; HEL immobilised; measured at several temperatures; van't Hoff analysis (non-linear regression); PBS with 0.005% Tween 20; KD given for 25 °C from the van't Hoff free energy
[17] = molecular target: T2, hen egg lysozyme (Gallus gallus (hen), UniProt P00698); test: ITC; iTC200; 25 °C; PBS; VHH (10 uM) in the cell titrated with HEL (100 uM); 1:1 binding model; details: both partners purified
T2 construct: hen egg lysozyme (lysozyme C), bought from Wako Pure Chemical; also called HEL; source: bought: Wako Pure Chemical (Cat. No. 126-02671), used without further purification
T2 sequence (P00698 19-147): as above

[18] = molecular target: T2, hen egg lysozyme; test: SPR; as a1, but KD from the responses in equilibrium (Scatchard plot, 1:1 model); HEL immobilised; 25 °C; PBS with 0.005% Tween 20; details: both partners purified
[19] = molecular target: T2, hen egg lysozyme; test: SPR; Biacore T200; HEL immobilised on CM5 chip (200 RU); VHH flowed over; 25 °C; PBS with 0.005% Tween 20; global fit to a 1:1 binding model; details: both partners purified
Method in brief: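 Binding of the His6-tagged single-domain antibody, expressed in E. coli BL21(DE3) and purified by Ni-NTA and size-exclusion chromatography, was measured by surface plasmon resonance on a Biacore T200 against hen egg lysozyme immobilised on a CM5 chip (200 RU). Runs were at 25 °C in PBS with 0.005% Tween 20, with 300 s contact, 600 s dissociation and regeneration in 1.0 M Arg-HCl pH 4.4. Antibody concentrations were adjusted per mutant. Kd, kon and koff came from global fitting to a 1:1 binding model in BiaEvaluation.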

[20] = molecular target: T2, hen egg lysozyme; test: SPR; HEL immobilised; measured at several temperatures; van't Hoff analysis (non-linear regression); PBS with 0.005% Tween 20; KD given for 25 °C from the van't Hoff free energy; details: both partners purified
[21] = molecular target: T2, hen egg lysozyme; test: as above; details: both partners purified; remark: listed apart in the source

Sequence of hen egg lysozyme (hen) (P00698 19-147): as above

ddH against WT antibody (ITC) [1]: 4.8 kcal/mol | Kd [2]: 635 nM | Kd [3]: 1800 nM | stoichiometry N [3]: 1.23 | Kd [4]: 295 nM | koff [4]: 0.686 s⁻¹ | kon [4]: 2.32e+06 M⁻¹ s⁻¹ | Kd [5]: 100 nM | koff [5]: 0.116 s⁻¹ | kon [5]: 1.15e+06 M⁻¹ s⁻¹ | Kd [6]: 146 nM | koff [6]: 0.201 s⁻¹ | kon [6]: 1.38e+06 M⁻¹ s⁻¹ | Kd [7]: 191 nM | koff [7]: 0.309 s⁻¹ | kon [7]: 1.62e+06 M⁻¹ s⁻¹ | Kd [8]: 233 nM | koff [8]: 0.479 s⁻¹ | kon [8]: 2.06e+06 M⁻¹ s⁻¹ | Kd [9]: 418 nM | koff [9]: 0.83 s⁻¹ | kon [9]: 1.99e+06 M⁻¹ s⁻¹ | Kd [10]: 303 ± 32 nM | Kd [11]: 348 ± 42 nM | Kd [12]: 429 ± 48 nM | Kd [13]: 529 ± 55 nM | Kd [14]: 658 ± 64 nM | Kd [15]: 867 ± 70 nM | Kd [16]: 413 nM | dH (van't Hoff) [16]: -12 kcal/mol
B1: D3-L11 Y102A (VHH)
VHH: DVQLVESGGGSVQAGGSLRLSCAASGSTDSIEYMTWFRQAPGKAREGVAALYTHTGNTYYTDSVKGRFTISQDKAKNMAYLRMDSVKSEDTAIYTCGATRKAVPVRFALDQSSYDYWGQGTQVTVSS
notes: the substitution is still to be applied; source: E. coli BL21(DE3), purified (Ni-NTA, SEC)

ddH against WT antibody (ITC) [17]: 9.1 ± 1.4 kcal/mol | Kd [18]: 144 ± 22 nM | Kd [19]: 46.1 nM | koff [19]: 0.128 s⁻¹ | kon [19]: 2.77e+06 M⁻¹ s⁻¹ | Kd [20]: 46 ± 19 nM | dH (van't Hoff) [21]: -11 kcal/mol
B2: D3-L11 Y52A (VHH)
VHH: B1 VHH with Y52A, A102Y
notes: as the VHH chain of m2 with the stated change; source: E. coli BL21(DE3), purified (Ni-NTA, SEC)
